In data set [1] the test system is HeLa Kyoto. Briefly: solubility in G1/S (NP-40 vs SDS abundance) (log2 ratio); higher = more soluble. The settings on record: cell cycle stage: G1/S.
Data set [2] has as its system HeLa Kyoto. Description: solubility change mitosis vs G1/S (difference of NP-40 vs SDS log2 ratios) (log2 ratio difference); higher = more soluble in mitosis.
The subject of data set [3] is HeLa Kyoto. Description: melting temperature (median over replicates), in situ; higher = more thermally stable.
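Wherever melting temperature (median over replicates), in situ is given: HeLa Kyoto cells synchronized by double thymidine or nocodazole block, proteins quantified by TMT10plex mass spectrometry, three independent biological replicates.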
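Wherever solubility change mitosis vs G1/S (difference of NP-40 vs SDS log2 ratios) is given: synchronized HeLa Kyoto cells (double thymidine block for G1/S, nocodazole release for mitosis), protein amounts in NP-40 versus SDS lysates quantified by mass spectrometry, three biological replicates.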
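Wherever solubility in G1/S (NP-40 vs SDS abundance) is given: HeLa Kyoto cells arrested at G1/S by double thymidine block, proteins quantified by TMT10plex mass spectrometry in mild NP-40 versus SDS extracts, three biological replicates.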

“MDDKAFTKELDQWVEQLNECKQLNENQVRTLCEKAKEILTKESNVQEVRCPVTVCGDVHGQFHDLMELFRIGGKSPDTNYLFMGDYVDRGYYSVETVTLLVALKVRYPERITILRGNHESRQITQVYGFYDECLRKYGNANVWKYFTDLFDYLPLTALVDGQIFCLHGGLSPSIDTLDHIRALDRLQEVPHEGPMCDLLWSDPDDRGGWGISPRGAGYTFGQDISETFNHANGLTLVSRAHQLVMEGYNWCHDRNVVTIFSAPNYCYRCGNQAAIMELDDTLKYSFLQFDPAPRRGEPHVTRRTPDYFL [PPP2CB]”: the “solubility in G1/S (log2)” value in the data set on HeLa Kyoto [1] was 0.0545. In addition, the “solubility change mitosis (log2)” value with HeLa Kyoto [2] is -0.00731. Further, the melting temperature with HeLa Kyoto [3] (cell cycle stage: G1/S) is 45.7 °C; with HeLa Kyoto [3] (cell cycle stage: mitosis) it was 54.8 °C.

With “MDEERALYIVRAGEAGAIERVLRDYSDKHRATFKFESTDEDKRKKLCEGIFKVLIKDIPTTCQVSCLEVLRILSRDKKVLVPVTTKENMQILLRLAKLNELDDSLEKVSEFPVIVESLKCLCNIVFNSQMAQQLSLELNLAAKLCNLLRKCKDRKFINDIKCFDLRLLFLLSLLHTDIRSQLRYELQGLPLLTQILESAFSIKWTDEYESAIDHNGPPLSPQETDCAIEALKALFNVTVDSWKVHKESDSHQFRVMAAVLRHCLLIVGPTEDKTEELHSNAVNLLSNVPVSCLDVLICPLTHEETAQEATTLDELPSNKTAEKETVLKNNTMVYNGMNMEAIHVLLNFMEKRIDKGSSYREGLTPVLSLLTECSRAHRNIRKFLKDQVLPPLRDVTNRPEVGSTVRNKLVRLMTHVDLGVKQIAAEFLFVLCKERVDSLLKYTGYGNAAGLLAARGLLAGGRGDNWYSEDEDTDTEEYKNAKPKEELLKPMGLKPDGTITPLEEALNQYSVIEETSSDTD [RIC8B]”, in the data set on HeLa Kyoto [1], the “solubility in G1/S (log2)” value is -0.00976. For the same sequence, the “solubility change mitosis (log2)” value in the data set with HeLa Kyoto [2] was -0.194. Moreover, the values for the melting temperature in the data set with HeLa Kyoto [3] (cell cycle stage: G1/S) and in the data set with HeLa Kyoto [3] (cell cycle stage: mitosis) were 49.4 °C and 49.8 °C, respectively.

“MDNRFATAFVIACVLSLISTIYMAASIGTDFWYEYRSPVQENSSDLNKSIWDEFISDEADEKTYNDALFRYNGTVGLWRRCITIPKNMHWYSPPERTESFDVVTKCVSFTLTEQFMEKFVDPGNHNSGIDLLRTYLWRCQFLLPFVSLGLMCFGALIGLCACICRSLYPTIATGILHLLAGLCTLGSVSCYVAGIELLHQKLELPDNVSGEFGWSFCLACVSAPLQFMASALFIWAAHTNRKEYTLMKAYRVA [CLDND1]”: the “solubility in G1/S (log2)” value with HeLa Kyoto [1] was -0.395. The “solubility change mitosis (log2)” value with HeLa Kyoto [2] amounted to 0.186. In the data set with HeLa Kyoto [3] (cell cycle stage: mitosis), this sequence yielded a melting temperature of 58.6 °C.

With “MDPLFQQTHKQVHEIQSCMGRLETADKQSVHIVENEIQASIDQIFSRLERLEILSSKEPPNKRQNARLRVDQLKYDVQHLQTALRNFQHRRHAREQQERQREELLSRTFTTNDSDTTIPMDESLQFNSSLQKVHNGMDDLILDGHNILDGLRTQRLTLKGTQKKILDIANMLGLSNTVMRLIEKRAFQDKYFMIGGMLLTCVVMFLVVQYLT [GOSR2]”, the “solubility in G1/S (log2)” value with HeLa Kyoto [1] was 0.00468. In addition, in the data set with HeLa Kyoto [2], the “solubility change mitosis (log2)” value worked out at 0.0667. For the same sequence, the results for the melting temperature in the data set with HeLa Kyoto [3] (cell cycle stage: G1/S) and in the data set on HeLa Kyoto [3] (cell cycle stage: mitosis) were 51.8 °C and 51.4 °C, respectively.

Turning to “MDTAEDPAWLQLLQKDSSPPGPRPTAFFCPQDGSLGAGSSAMRDYCPSQQKASPAPPRHTPDQSPGMESRHRSPSGAGEGASCSDGPRGSLACPSPTCFSPQESPSKETLEAHGASISGTPEATTSGKPEPVSSVKTEPKSSDDRNPMFLEKMDFKSSKQADSTSIGKEDPGSSRKADPMFTGKAEPEILGKGDPVAPGRMDPMTVRKEDLGSLGKVDPLCSSKTYTVSPRKEDPGSLRKVDPVSSDKVDPVFPRKEEPRYSGKEHPVSSEKVAPTSAEKVDLVLSGKRDPGPSGKADPMPLESMDSASTGKTEPGLLGKLIPGSSGKNGPVSSGTGAPGSLGRLDPTCLGMADPASVGNVETVPATKEDSRFLGKMDPASSGEGRPVSGHTDTTASAKTDLTSLKNVDPMSSGKVDPVSLGKMDPMCSGKPELLSPGQAERVSVGKAGTVSPGKEDPVSSRREDPISAGSRKTSSEKVNPESSGKTNPVSSGPGDPRSLGTAGPPSAVKAEPATGGKGDPLSSEKAGLVASGKAAPTASGKAEPLAVGKEDPVSKGKADAGPSGQGDSVSIGKVVSTPGKTVPVPSGKVDPVSLGKAEAIPEGKVGSLPLEKGSPVTTTKADPRASGKAQPQSGGKAETKLPGQEGAAAPGEAGAVCLKKETPQASEKVDPGSCRKAEPLASGKGEPVSLGKADSAPSRKTESPSLGKVVPLSLEKTKPSSSSRQLDRKALGSARSPEGARGSEGRVEPKAEPVSSTEASSLGQKDLEAAGAERSPCPEAAAPPPGPRTRDNFTKAPSWEASAPPPPREDAGTQAGAQACVSVAVSPMSPQDGAGGSAFSFQAAPRAPSPPSRRDAGLQVSLGAAETRSVATGPMTPQAAAPPAFPEVRVRPGSALAAAVAPPEPAEPVRDVSWDEKGMTWEVYGAAMEVEVLGMAIQKHLERQIEEHGRQGAPAPPPAARAGPGRSGSVRTAPPDGAAKRPPGLFRALLQSVRRPRCCSRAGPTAE [GPRIN1]”, the “solubility in G1/S (log2)” value in the data set with HeLa Kyoto [1] stood at 0.2. In addition, in the data set on HeLa Kyoto [2], the “solubility change mitosis (log2)” value was -0.114. The melting temperature came out at 54.4 °C with HeLa Kyoto [3] (cell cycle stage: G1/S) and 53.5 °C in the data set on HeLa Kyoto [3] (cell cycle stage: mitosis).

For the sequence “MEDPFEEADQPTTEPGMVLDSVEAGDTTPPTKRKSKFSGFGKIFKPWKWRKKKSSDKFKETSEVLERKISMRKPREELVKRGVLLEDPEQGGEDPGKPSDAMLKNGHTTPIGNARSSSPVQVEEEPVRLASLRKAIPEEDLKKRLGSTGSQPNSEAESVPENVPKPPLLPPKRPLSSSHEASEGQAKDATSSGGTARFIISTSITTAPAATTAATSLAKTVNLSVTPSPAPRTLPAAPASTNTTATPSLTHMVPAKQPPIPPPKPAHRNSNPVIAELSQAINSGTLLSKPSPPLPPKRGIPSTSVPTLESAAAITTKTPSDEREKSTCSMGSELLPMISPRSPSPPLPTHIPPEPPRTPPFPAKTFQVVPEIEFPPSLDLHQEIPQQEDQKKEVPKRILDQNFGEPHIPSRLPPLPLHIRIQQALTSPLPMTPILEGSHRAHSLLFENSDSFSEDSSTLGRTRSLPITIEMLKVPDDEEEEEQTCPSTFSEEMTPTSVIPKLPQCLREEEEKESDSDSEGPIQYRDEEDEDESYQSALANKVKRKDTLAMKLNHRPSEPELNLNSWPCKSKEEWNEIRHQIGNTLIRRLSQRPTPEELEQRNILQPKNEADRQAEKREIKRRLTRKLSQRPTVAELLARKILRFNEYVEVTDAQDYDRRADKPWTKLTPADKAAIRKELNEFKSSEMEVHEESKHFTRYHRP [PHACTR4]”, in the data set on HeLa Kyoto [1], the “solubility in G1/S (log2)” value came to 0.401. For the same sequence, the “solubility change mitosis (log2)” value with HeLa Kyoto [2] was determined as 0.0651. Further, the melting temperature was 54.3 °C with HeLa Kyoto [3] (cell cycle stage: G1/S) and 54.9 °C with HeLa Kyoto [3] (cell cycle stage: mitosis).

Source of the values: the supplement of paper PMC5998384.
